The text below walks through data of patent publication US7838501.

Assay [1] deals with chimeric transactivator λR-GyrB-NFκB (wild type λ repressor N-terminal domain) (bacteriophage λ; Escherichia coli). As to the kind of experiment: cell-based or functional assay.
The target of assay [2] is chimeric transactivator λR-GyrB-NFκB with λ repressor mutation S93G (mutant clone 25) (bacteriophage λ; Escherichia coli). As to the kind of experiment: cell-based or functional assay.

The substance “chimeric transactivator λR-GyrB-NFκB (wild type λ repressor N-terminal domain)” had an inducibility of luciferase activity, 5 nM coumermycin 40 hr, transient transfection of 293A cells in assay [1] of 50 fold.
Turning to “chimeric transactivator λR-GyrB-NFκB with λ repressor mutation S93G (mutant clone 25)”, in assay [2], the Activation factor, clone 5 came out at 5100 fold; the Activation factor, clone 8 came to 1500 fold; the Activation factor, clone 10 came to 3200 fold; the Activation factor, clone 18 worked out at 5800 fold. In assay [2], the Activation factor, clone 23 was determined as 14000 fold; the Activation factor, clone 28 came to 5100 fold; the Activation factor, clone 34 was 5800 fold; the Activation factor, clone 44 worked out at 13000 fold. In assay [2], this substance showed an Activation factor, clone 45 of 1600 fold; an Activation factor, clone 47 of 2100 fold; a Luciferase Activity, With Coum (5 nM), clone 5 (Arbitrary Light Units/µg protein) of 47500; a Luciferase Activity, With Coum (5 nM), clone 8 (Arbitrary Light Units/µg protein) of 52400. In assay [2], this substance registered a Luciferase Activity, With Coum (5 nM), clone 10 (Arbitrary Light Units/µg protein) of 1590; a Luciferase Activity, With Coum (5 nM), clone 18 (Arbitrary Light Units/µg protein) of 7450; a Luciferase Activity, With Coum (5 nM), clone 23 (Arbitrary Light Units/µg protein) of 8240; a Luciferase Activity, With Coum (5 nM), clone 28 (Arbitrary Light Units/µg protein) of 12300. For the same substance, in assay [2], the Luciferase Activity, With Coum (5 nM), clone 34 (Arbitrary Light Units/µg protein) amounted to 47000; the Luciferase Activity, With Coum (5 nM), clone 44 (Arbitrary Light Units/µg protein) came out at 30200; the Luciferase Activity, With Coum (5 nM), clone 45 (Arbitrary Light Units/µg protein) is 1910; the Luciferase Activity, With Coum (5 nM), clone 47 (Arbitrary Light Units/µg protein) amounted to 8530. In assay [2], this substance registered a Luciferase Activity, Without Coum, clone 5 (Arbitrary Light Units/µg protein) of 9.4; a Luciferase Activity, Without Coum, clone 8 (Arbitrary Light Units/µg protein) of 35.8; a Luciferase Activity, Without Coum, clone 10 (Arbitrary Light Units/µg protein) of 0.5; a Luciferase Activity, Without Coum, clone 18 (Arbitrary Light Units/µg protein) of 1.3. Moreover, in assay [2], the Luciferase Activity, Without Coum, clone 23 (Arbitrary Light Units/µg protein) is 0.6; the Luciferase Activity, Without Coum, clone 28 (Arbitrary Light Units/µg protein) is 2.4; the Luciferase Activity, Without Coum, clone 34 (Arbitrary Light Units/µg protein) is 8.1; the Luciferase Activity, Without Coum, clone 44 (Arbitrary Light Units/µg protein) was determined as 2.4. In assay [2], this substance registered a Luciferase Activity, Without Coum, clone 45 (Arbitrary Light Units/µg protein) of 1.2; a Luciferase Activity, Without Coum, clone 47 (Arbitrary Light Units/µg protein) of 4.1; a coumermycin concentration of maximal induction of luciferase, stable clone S93G-5, 40 hr of 2.5 to 5 nM; an induction of luciferase activity, 5 nM coumermycin 40 hr, 293A cells with stable pLuc of 1460 fold. For the same substance, in assay [2], the lowest coumermycin concentration with apparent induction of luciferase expression, stable clone S93G-5, 40 hr stood at 0.5 nM and the suppression of coumermycin-induced (5 nM) luciferase expression by 5 µM novobiocin, 40 hr was greater than 98%.
